According to US20170189507A1:

Molecular target: HLA-A*24 (human)
Experiment: UV-ligand exchange ELISA

TFSVSSHLF [peptide SEQ ID No 222] and YFIDSTNLKTHF [peptide SEQ ID No 269] fall in the same range of peptide exchange yield: 50 to 75% for the first, 50 to 75% for the second.

Compared with PYRLIFEKF [peptide SEQ ID No 281], YYKSTSSAF [peptide SEQ ID No 218] is higher in peptide exchange yield: 20 to 49% for the first, 50 to 75% for the second.

First: TYKDEGNDYF [peptide SEQ ID No 209]
Second: TYELRYFQI [peptide SEQ ID No 204]
The peptide exchange yield of the first is lower: 50 to 75% for the first, > 75% for the second.

Compared with YYGPSLFLL [peptide SEQ ID No 200], VYQGHTALL [peptide SEQ ID No 277] is higher in peptide exchange yield: 50 to 75% for the first, > 75% for the second.

Compared with IYATEAHVF [peptide SEQ ID No 201], VYWDSAGAAHF [peptide SEQ ID No 202] is higher in peptide exchange yield: 50 to 75% for the first, > 75% for the second.

QYLGQIQHI [peptide SEQ ID No 268] and LYITEPKTI [peptide SEQ ID No 287] fall in the same range of peptide exchange yield: 50 to 75% for the first, 50 to 75% for the second.

Compared with AYVVFVSTL [peptide SEQ ID No 207], RYAEEVGIF [peptide SEQ ID No 199] is higher in peptide exchange yield: 20 to 49% for the first, 50 to 75% for the second.

HYPPVQVLF [peptide SEQ ID No 285] and NYYEVHKELF [peptide SEQ ID No 270] fall in the same range of peptide exchange yield: 50 to 75% for the first, 50 to 75% for the second.
